The results in this text go back to patent EP4782464A1 (Nanjing Legend Biotech Co., Ltd., dated 2026).

In assay [1] the target is mouse GCC (guanylyl cyclase C, GUCY2C) on cells (mouse) (UniProt Q3UWA6). The experiment in a line: flow cytometry, B cell clone supernatant on Dubca-mouse GCC.Luc cells. (A flow cytometer gives signals particle by particle.)
Assay [2] concerns the target human GCC (guanylyl cyclase C, GUCY2C) on cells (human) (UniProt P25092). The experiment in a line: flow cytometry, B cell clone supernatant on Dubca-human GCC.Luc cells.
Assay [3] has as its target T1, human GCC (guanylyl cyclase C, GUCY2C) on cells (human, UniProt P25092 24-1073).
T1 construct: whole, on cells; also called Dubca-human GCC.Luc
The experiment in a line: flow cytometry on 293T-human GCC.Luc cells.

In assay [4] the target is T2, mouse GCC (guanylyl cyclase C, GUCY2C) on cells (mouse, UniProt Q3UWA6 20-1072).
T2 construct: whole, on cells; also called Dubca-mouse GCC.Luc
T2 sequence (looked up): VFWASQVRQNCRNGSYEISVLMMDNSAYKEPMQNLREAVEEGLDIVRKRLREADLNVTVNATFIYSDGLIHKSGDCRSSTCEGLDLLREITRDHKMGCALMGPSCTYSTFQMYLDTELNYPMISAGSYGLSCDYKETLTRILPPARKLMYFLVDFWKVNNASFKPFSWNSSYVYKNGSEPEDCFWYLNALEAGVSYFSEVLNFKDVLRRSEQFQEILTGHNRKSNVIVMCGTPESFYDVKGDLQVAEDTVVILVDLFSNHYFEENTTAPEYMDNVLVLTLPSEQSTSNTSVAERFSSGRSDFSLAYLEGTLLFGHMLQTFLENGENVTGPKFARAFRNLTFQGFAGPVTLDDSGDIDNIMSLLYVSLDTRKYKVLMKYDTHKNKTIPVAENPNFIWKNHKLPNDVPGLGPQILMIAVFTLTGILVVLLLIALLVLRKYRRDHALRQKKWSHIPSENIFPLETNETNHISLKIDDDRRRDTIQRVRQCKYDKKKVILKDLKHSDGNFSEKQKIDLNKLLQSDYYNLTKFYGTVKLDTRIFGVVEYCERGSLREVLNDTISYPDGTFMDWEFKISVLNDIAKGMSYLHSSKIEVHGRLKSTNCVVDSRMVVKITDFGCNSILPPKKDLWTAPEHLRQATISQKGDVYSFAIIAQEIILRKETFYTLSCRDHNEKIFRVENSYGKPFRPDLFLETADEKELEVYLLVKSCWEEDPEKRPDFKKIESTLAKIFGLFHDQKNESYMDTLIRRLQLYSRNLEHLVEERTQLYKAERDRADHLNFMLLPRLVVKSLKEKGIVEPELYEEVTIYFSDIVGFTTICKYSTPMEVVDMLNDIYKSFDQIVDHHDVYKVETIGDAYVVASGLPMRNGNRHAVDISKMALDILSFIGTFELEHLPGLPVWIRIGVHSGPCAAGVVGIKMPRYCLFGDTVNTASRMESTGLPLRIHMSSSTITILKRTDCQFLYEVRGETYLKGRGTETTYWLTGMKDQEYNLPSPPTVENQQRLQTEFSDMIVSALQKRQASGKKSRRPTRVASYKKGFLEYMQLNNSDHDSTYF
Put plainly: flow cytometry on 293T-mouse GCC.Luc cells.

Assay [5] concerns the target T3, His-tagged mouse GUCY2C/guanylyl cyclase C protein (ACRO GUC-M52H3) (mouse, UniProt Q3UWA6 20-433, limits assumed).
T3 construct: Bought protein; also called mouse GCC-his protein; mouse GCC-his; not shown: His tag
T3 sequence (looked up): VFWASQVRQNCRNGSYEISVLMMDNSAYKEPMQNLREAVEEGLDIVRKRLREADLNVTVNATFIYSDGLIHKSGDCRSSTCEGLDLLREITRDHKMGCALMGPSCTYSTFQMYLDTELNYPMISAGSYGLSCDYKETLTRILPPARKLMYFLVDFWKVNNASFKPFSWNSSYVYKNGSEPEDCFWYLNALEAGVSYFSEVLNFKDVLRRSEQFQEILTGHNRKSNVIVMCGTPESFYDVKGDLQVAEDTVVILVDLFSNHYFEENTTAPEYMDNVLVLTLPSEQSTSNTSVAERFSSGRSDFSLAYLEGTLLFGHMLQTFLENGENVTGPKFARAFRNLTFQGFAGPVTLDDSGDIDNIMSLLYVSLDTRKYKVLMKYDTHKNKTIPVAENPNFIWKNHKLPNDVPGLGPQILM
The experiment in a line: ELISA, plate coated with mouse GCC-his protein at 1 µg/mL. A general note: In an ELISA, binding on a coated surface is turned into a signal by an enzyme label.

Assay [6] deals with T4, His-tagged human GUCY2C/Guanylyl cyclase C protein (ACRO GUC-H52H5) (human, UniProt P25092 24-430).
T4 construct: Bought protein; also called human GCC-his protein; human GCC-his; not shown: His tag
Put plainly: ELISA, plate coated with human GCC-his protein at 1 µg/mL.

The target in assay [7] is T1, human GCC (guanylyl cyclase C, GUCY2C) …. Put plainly: flow cytometry, B cell clone supernatant on Dubca-human GCC.Luc cells.

Chain of human GCC (guanylyl cyclase C, GUCY2C) on cells (human) (P25092 24-1073): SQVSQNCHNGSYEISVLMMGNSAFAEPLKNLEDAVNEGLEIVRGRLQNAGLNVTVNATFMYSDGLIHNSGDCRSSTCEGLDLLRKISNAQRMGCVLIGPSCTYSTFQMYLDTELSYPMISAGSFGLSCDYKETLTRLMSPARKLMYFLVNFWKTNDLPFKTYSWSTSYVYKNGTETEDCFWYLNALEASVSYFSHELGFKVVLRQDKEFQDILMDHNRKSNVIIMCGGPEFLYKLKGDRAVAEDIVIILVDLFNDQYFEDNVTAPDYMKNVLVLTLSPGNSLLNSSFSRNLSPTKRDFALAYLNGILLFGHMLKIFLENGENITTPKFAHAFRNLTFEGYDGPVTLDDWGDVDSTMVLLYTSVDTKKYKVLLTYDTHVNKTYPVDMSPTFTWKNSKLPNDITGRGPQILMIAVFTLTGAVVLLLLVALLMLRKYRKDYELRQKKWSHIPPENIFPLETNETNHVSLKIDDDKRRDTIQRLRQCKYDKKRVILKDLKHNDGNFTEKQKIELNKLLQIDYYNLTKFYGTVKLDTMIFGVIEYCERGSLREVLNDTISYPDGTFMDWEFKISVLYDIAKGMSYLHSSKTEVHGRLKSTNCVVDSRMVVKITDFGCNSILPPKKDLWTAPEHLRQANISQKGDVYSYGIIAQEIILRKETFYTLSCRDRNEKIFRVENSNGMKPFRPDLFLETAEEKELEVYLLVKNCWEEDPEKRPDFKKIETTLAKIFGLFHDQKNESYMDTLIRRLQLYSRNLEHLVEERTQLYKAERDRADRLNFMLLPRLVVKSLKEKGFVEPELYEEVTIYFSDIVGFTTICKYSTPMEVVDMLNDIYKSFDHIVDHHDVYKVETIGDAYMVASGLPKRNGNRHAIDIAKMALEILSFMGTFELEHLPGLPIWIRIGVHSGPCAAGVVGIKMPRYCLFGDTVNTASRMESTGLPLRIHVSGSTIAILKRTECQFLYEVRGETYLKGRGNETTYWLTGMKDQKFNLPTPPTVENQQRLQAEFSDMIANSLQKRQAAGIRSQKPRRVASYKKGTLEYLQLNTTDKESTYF
T1 sequence (P25092 24-1073): as above
T4 sequence (P25092 24-430 limits assumed): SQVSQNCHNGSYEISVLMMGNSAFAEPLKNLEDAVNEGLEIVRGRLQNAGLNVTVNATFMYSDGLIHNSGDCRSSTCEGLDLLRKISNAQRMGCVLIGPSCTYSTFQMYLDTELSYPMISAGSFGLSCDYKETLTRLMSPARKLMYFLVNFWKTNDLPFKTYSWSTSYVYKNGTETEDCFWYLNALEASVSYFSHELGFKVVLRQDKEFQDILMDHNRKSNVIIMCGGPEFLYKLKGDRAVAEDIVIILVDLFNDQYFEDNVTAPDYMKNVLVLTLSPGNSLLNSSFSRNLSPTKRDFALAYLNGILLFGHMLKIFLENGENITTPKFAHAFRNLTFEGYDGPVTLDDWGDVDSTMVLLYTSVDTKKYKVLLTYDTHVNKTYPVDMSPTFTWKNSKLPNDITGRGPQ

B1: 21E1 (anti-GCC rabbit monoclonal antibody, B cell clone supernatant) (antibody, V domains shown)
VH: QSLEESGGRLVTPGTPLTLTCTVSGIDLSSYDMTWVRQAPGKGLEWIGSIGDDGNTYYATWAKGRFTISKTSTTVHLKMTSLTTEDTATYFCARGWSFCKSWGQGTLVTVSS
VL: AQVLTQTASPVSAAVGGTVTISCQSSQSVANNNLAWYQQKPGQPPSPLIYKASTLESGVPSRFSGSGSGTQFALTISGVQCDDAATYYCQGAYRSGIMAFGGGTEVVVR
As for B1, the percent of cells bound (flow cytometry) was determined as 99.7% in assay [1] and 95.4% in assay [2].

B2: 22G5 (anti-GCC rabbit monoclonal antibody, B cell clone supernatant) (antibody, V domains shown)
VH: QSVEESGGRLVTPGTPLTLTCTVSGIDLSSYAMTWVRQAPGEGLEWIGTINTISTAYYANWAKGRFTISKTSTTVDLKIASPTTEDTATYFCARDHGYYDVWGQGTLVTVSS
VL: AQVLTQTPSSVSAAVGGTVTINCQASQSVYKNNYLSWYQQKPGQPPRLLIYDASTLASGVPSRFKGSGSGTQFTLTISGVQCDDAATYYCLGEFSCSSGDCAAFGGGTEVVVK
On to B2, for which the percent of cells bound (flow cytometry) in assay [1] came to 74.1%; in assay [2], 99.9%.

B3: 22G5-Rabbit IgG (antibody, V domains shown)
VH: B2 VH
VL: AQVLTQTPSSVSAAVGGTVTINCQASQSVYKNNYLSWYQQKPGQPPRLLIYDASTLASGVPSRFKGSGSGTQFTLTISGVQCDDAATYYCLGEFSCSSGDCAAFGGGTEVVVKG
notes: Recombinant rabbit IgG (IgG1k) expressed in HD CHO-S cells: 22G5 VH-Rabbit IgG CH1-CH2-CH3 and 22G5 VL-Rabbit IgG CL; also called 22G5-Rabbit IgG antibody; 22G5 antibody
By EC50 is commonly meant the concentration at which the effect is half-maximal. Read a high EC50 as weaker potency. With B3, the half-maximal effective concentration (EC50) was 0.102 nM in assay [3], 1.23 nM in assay [4], 0.824 nM in assay [5] and 0.619 nM in assay [6].

B4: 14C2 (anti-GCC rabbit monoclonal antibody, B cell clone supernatant) (antibody, V domains shown)
VH: QSLEESGGRLVTPGTPLTLTCTASGFSLSNYDMSWVRQAPGKGLEWIGTIEPDGSTWYASWAKGRLTISRTSTTVDLKMTSLTTEDTATYFCVRGAPDYSSNAFNLWGQGTLVTVSS
VL: DVVMTQTPSSVSEPVGGTVTIKCQASQSISSYLAWYQQKPGQPPKLLIYKASTLASGVSSQFRGSGSGTEFTLTISDLECADAATYYCQSTYAASNKLHFAFGGGTDVVVK
notes: Tested as native rabbit antibody in B cell clone supernatant; also called 14C2-B cells; clone 14C2
As to B4, the percent of cells bound (flow cytometry) in assay [1] stood at 99.2%. The binding result in assay [7] is given as “no binding”.

B5: 25E2 (anti-GCC rabbit monoclonal antibody, B cell clone supernatant) (antibody, V domains shown)
VH: QSVEESGGRLVTPGTPLTLTCTVSGIDLNKHAMGWVRQAPTKGLEWIGTIYVSTNTAYASWAKGRFTISKTSSTTVDLKMTSLTTEDTATYFCARGGGSSYYTGELYFNLWGQGTLVTVSS
VL: AYDMTQTPASVEVAVGGTVSIKCQVSQSIGSWLAWYQQKPGQPPKLLIYSASTLASGVSSRFKGSGSGTEFTLTISDLACVDAATYYCQSYSSASTTAFGGGTEVVVR
Take B5: the percent of cells bound (flow cytometry) in assay [1] came out at 95.4%; in assay [2], 95.1%.

B6: 48D5 (anti-GCC rabbit monoclonal antibody, B cell clone supernatant) (antibody, V domains shown)
VH: QSLEESGGRLVKPDETLTITCTVSGIDLSSNAISWVRQAPGEGLEYIGYIGTGGKSFYATWTKGRFTISKTSTTVDLKMTSLTNEDTAMYFCATGNTYLDLWGQGTLVTVSS
VL: AQVLTQTPSSVSAAVGGTVTINCQSSQSVYGADYLAWYQQKPGQPPKLLIYRASNLASGVPSRFRGSGSGTQFTLTISEVQCDDAATYYCQGTYISSDWLNPFGGGTEVVVK
On to B6, for which the percent of cells bound (flow cytometry) in assay [1] was found to be 81.8%; in assay [2] it was 65.9%.

B7: PF0098-Rabbit IgG (antibody, V domains shown)
VH: QVQLQQPGAELVKPGASVKLSCKASGYTFTSYWMHWVKQRPGQGLEWIGEIKPSNGLTNYIEKFKNKATLTVDKSATTAYMQLSSLTAEDSAVYYCTRTITTTEGYWFFDVWGAGTTVTVSS
VL: DIVLTQSPASLAVSLGQRATISCRASESVDYYGTSLMQWYQQKPGQPPKLLIYAASNVESGVPARFSGSGSGTDFSLNIHPVEEDDIAMYFCQQTRKVYTFGGGTKLEIKG
notes: also called PF0098-Rabbit IgG antibody
On to B7, for which the EC50 in assay [3] came to 0.0254 nM; in assay [4], 0.284 nM; in assay [5] it was 0.899 nM; in assay [6] it was 0.671 nM.
